Each block holds one binder with its values, some of them ahead of it.
Experiments:
[1] = biological target: T1, cynomolgus monkey CD3 epsilon chain (CD3ε) (cynomolgus monkey (Macaca fascicularis), UniProt Q95LI5 22-198); test: cell-based or functional assay
T1 chain: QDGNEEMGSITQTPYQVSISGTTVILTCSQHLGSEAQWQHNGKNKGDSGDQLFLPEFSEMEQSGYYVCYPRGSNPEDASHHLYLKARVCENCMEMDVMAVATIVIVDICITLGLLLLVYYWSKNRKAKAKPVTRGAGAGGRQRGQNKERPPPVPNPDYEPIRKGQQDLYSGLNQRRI

[2] = biological target: T2, human CD3 epsilon chain (CD3ε) (human, UniProt P07766 22-207); test: FACS on isolated human T cells; FITC anti-human light chain secondary
T2 construct: also called CD3ε on human T cells; human CD3ε
Method: (§1) The heterodimeric bispecific antibodies described in Example 1 were produced in HEK 293 cells and were assayed by fluorescence activated cell sorting (FACS) for binding to T cells, which express CD3ε, and to a human ovarian cancer cell line, Ovcar-8, which expresses mesothelin. Briefly, the heterodimeric bispecific antibodies were incubated with about 50,000 Ovcar-8 cells or isolated human or cynomolgus monkey T cells at 4° C. for one hour. The cells were then washed and stained with a fluorescein isothiocyanate (FITC)-conjugated anti-human light chain secondary antibody and analyzed by flow cytometry. The relative binding was represented by the geometric mean of fluorescence intensity.

[3] = biological target: T1, cynomolgus monkey CD3 epsilon chain …; test: FACS on isolated cynomolgus monkey T cells; FITC anti-human light chain secondary
Method: as §1

human mesothelin (MSLN) = human mesothelin (MSLN) (human, UniProt Q13421 296-598); test: cell-based or functional assay
[4] = biological target: T3, folate receptor 1 (FOLR1) (human, UniProt P15328 25-234); test: cell-based or functional assay
[5] = biological target: T3, folate receptor 1 (FOLR1); test: cell-based or functional assay; remark: listed apart in the source

T3 sequence (P15328 25-234): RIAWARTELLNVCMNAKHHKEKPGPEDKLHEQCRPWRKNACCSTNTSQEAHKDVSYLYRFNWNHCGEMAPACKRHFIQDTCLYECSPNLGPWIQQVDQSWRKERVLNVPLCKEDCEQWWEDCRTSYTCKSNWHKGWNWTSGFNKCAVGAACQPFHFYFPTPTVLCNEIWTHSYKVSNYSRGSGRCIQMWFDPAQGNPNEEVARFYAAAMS
T2 sequence (P07766 22-207 limits assumed): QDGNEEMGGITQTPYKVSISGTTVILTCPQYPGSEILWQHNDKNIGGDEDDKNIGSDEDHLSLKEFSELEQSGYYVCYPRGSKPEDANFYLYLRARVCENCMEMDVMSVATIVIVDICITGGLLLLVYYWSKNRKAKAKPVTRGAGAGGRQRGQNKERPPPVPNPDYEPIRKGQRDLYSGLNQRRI
Sequence of human mesothelin (MSLN) (Q13421 other isoform, or with tags, fused parts or gaps limits assumed): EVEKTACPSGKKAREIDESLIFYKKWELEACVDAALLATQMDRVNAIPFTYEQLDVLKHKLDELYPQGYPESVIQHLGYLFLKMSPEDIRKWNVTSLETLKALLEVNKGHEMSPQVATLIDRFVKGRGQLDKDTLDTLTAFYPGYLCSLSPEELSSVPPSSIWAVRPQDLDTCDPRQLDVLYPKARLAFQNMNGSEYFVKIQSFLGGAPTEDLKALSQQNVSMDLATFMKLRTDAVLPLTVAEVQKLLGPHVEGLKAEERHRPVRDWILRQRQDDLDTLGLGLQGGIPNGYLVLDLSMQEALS

B3: P73356.3 (anti-MSLN/CD3ε heterodimeric bispecific antibody with Fc region) (bispecific antibody, human IgG1)
chain 1: QVQLQESGPGLVKPSQTLSLTCTVSGGSINNNNYYWTWIRQHPGKGLEWIGYIYYSGSTFYNPSLKSRVTISVDTSKTQFSLKLSSVTAADTAVYYCAREDTMTGLDVWGQGTLVTVSSGGGGSGGGGSSSYELTQPPSVSVSPGQTARITCSGDALPKKYAYWYQQKSGQAPVLVIYEATKRPSGIPERFSGSSSGTMATLTLSGAQVEDEADYYCYSTDSTNYHWVFGGGTKLTVLGASTKGPSVFPLAPCSRSTSESTAALGCLVKDYFPEPVTVSWNSGALTSGVHTFPAVLQSSGLYSLSSVVTVPSSNFGTQTYTCNVDHKPSNTKVDKTVAAAEPKSSDKTHTCPPCPAPELLGGPSVFLFPPKPKDTLMISRTPEVTCVVVDVSHEDPEVKFNWYVDGVEVHNAKTKPREEQYNSTYRVVSVLTVLHQDWLNGKEYKCKVSNKQLPAPIEKTISKAKGQPREPQVYTLPPSRKEMTKNQVSLTCLVKGFYPSDIAVEWESNGQPENNYKTTPPVLKSDGSFFLYSKLTVDKSRWQQGNVFSCSVMHEALHNHYTQKSLSLSPGKAAAHHHHHH
chain 2: EVQLVESGGGLVKPGVSLRLSCAASGFTFSRYGMNWVRQAPGKGLEWVSSISSSGTYIKYADSVKGRFTISRDNAKNSLNLQMNSLRAEDTAVYYCARDRDRYPLDYWGQGTLVTVSSGGGGSGGGGSDIQMTQSPSSLSASVGDRVTITCRASQSINNYLNWYQQKPGKAPTLLIYAASSLQSGVPSRFSGSRSGTDFTLTISSLQPEDFAAYFCQQTYSNPTFGQGTKVEVKRTVAAPSVFIFPPSDEQLKSGTASVVCLLNNFYPREAKVQWKVDNALQSGNSQESVTEQDSKDSTYSLSSTLTLSKADYEKHKVYACEVTHQGLSSPVTKSFNRGECAAAEPKSSDKTHTCPPCPAPELLGGPSVFLFPPKPKDTLMISRTPEVTCVVVAVSHEDPEVKFNWYVDGVEVHNAKTKPREEQYNSTYRVVSVLTVLHQDWLNGKEYKCKVSNKALPAPIEKTISKAKGQPREPQVYTLPPSREEMTKNQVSLTCLVKGFYPSDIAVEWESNGQPENNYDTTPPVLDSDGSFFLYSDLTVDKSRWQQGNVFSCSVMHEALHNHYTQKSLSLSPGK
- human TDCC EC50, killing of Ovcar-8 cells (human mesothelin (MSLN)): < 1 pM

B4: P73352.3 (anti-MSLN/CD3ε heterodimeric bispecific antibody with Fc region, without CH1 and CL) (bispecific antibody)
chain 1: EVQLVESGGGLVKPGVSLRLSCAASGFTFSRYGMNWVRQAPGKGLEWVSSISSSGTYIKYADSVKGRFTISRDNAKNSLNLQMNSLRAEDTAVYYCARDRDRYPLDYWGQGTLVTVSSGGGGSGGGGSDIQMTQSPSSLSASVGDRVTITCRASQSINNYLNWYQQKPGKAPTLLIYAASSLQSGVPSRFSGSRSGTDFTLTISSLQPEDFAAYFCQQTYSNPTFGQGTKVEVKRAAAEPKSSDKTHTCPPCPAPELLGGPSVFLFPPKPKDTLMISRTPEVTCVVVNVSHEDPEVKFNWYVDGVEVHNAKTKPREEQYNSTYRVVSVLTVLHQDWLNGKEYKCKVSNKALPAPIEKTISKAKGQPREPQVYTLPPSREEMTKNQVSLTCLVKGFYPSDIAVEWESNGQPENNYDTTPPVLDSDGSFFLYSDLTVDKSRWQQGNVFSCSVMHEALHNHYTQKSLSLSPGK
chain 2: QVQLQESGPGLVKPSQTLSLTCTVSGGSINNNNYYWTWIRQHPGKGLEWIGYIYYSGSTFYNPSLKSRVTISVDTSKTQFSLKLSSVTAADTAVYYCAREDTMTGLDVWGQGTLVTVSSGGGGSGGGGSSSYELTQPPSVSVSPGQTARITCSGDALPKKYAYWYQQKSGQAPVLVIYEATKRPSGIPERFSGSSSGTMATLTLSGAQVEDEADYYCYSTDSTNYHWVFGGGTKLTVLGAAAEPKSSDKTHTCPPCPAPELLGGPSVFLFPPKPKDTLMISRTPEVTCVVVDVSHEDPEVKFNWYVDGVEVHNAKTKPREEQYNSTYRVVSVLTVLHQDWLNGKEYKCKVSNKQLPAPIEKTISKAKGQPREPQVYTLPPSRKEMTKNQVSLTCLVKGFYPSDIAVEWESNGQPENNYKTTPPVLKSDGSFFLYSKLTVDKSRWQQGNVFSCSVMHEALHNHYTQKSLSLSPGKAAAHHHHHH
- human TDCC EC50, killing of Ovcar-8 cells (human mesothelin (MSLN)): < 1 pM

Further lines, with some results ahead:

- Cyno TDCC EC50 (pM), Ovcar-8 target cells with cynomolgus monkey T cells [1]: 18.8 pM
- FACS binding (geometric mean) [2]: 11 geometric mean of fluorescence intensity
- FACS binding (geometric mean) [3]: 110 geometric mean of fluorescence intensity
B1: H69072.4 (anti-MSLN/CD3ε heterodimeric bispecific antibody) (bispecific antibody)
chain 1: DIQMTQSPSSVSASVGDRVTITCRASQGISSWLAWYQQKPGKAPKLLIYAASSLQSGVPSRFSGSGSGAAFTLTISSLQPEDFATYFCQQANSFPLTFAGGTKVDIKRGGGGSGGGGSQVQLQESGPGLVKPSQTLSLTCTVSGGSINNNNYYWTWIRQHPGKGLEWIGYIYYSGSTFYNPSLKSRVTISVDTSKTQFSLKLSSVTAADTAVYYCAREDTMTGLDVWGQGTTVTVSSASTKGPSVFPLAPCSRSTSESTAALGCLVKDYFPEPVTVSWNSGALTSGVHTFPAVLQSSGLYSLSSVVTVPSSNFGTQTYTCNVDHKPSNTKVDKTVGGGGSAAAVPRDLEVVAATPTSLLISWDAPHHGVAYYRITYGETGGNSPVQEFTVPGSKSTATISGLKPGVDYTINVYAVLAYPRGYPLSKPISINYRTDYKDDDDKGSSHHHHHH
chain 2: DIQMTQSPSSLSASVGDRVTITCRASQSINNYLNWYQQKPGKAPTLLIYAASSLQSGVPSRFSGSRSGTDFTLTISSLQPEDFAAYFCQQTYSNPTFGQGTKVEVKGGGGSGGGGSQVQLVESGGGVVQPGRSLRLSCAASGFTFSSYGMHWVRQAPGKGLEWVAVISYPGNTKYYADSVKGRFTISRDNSKNTLYLQMNSLRAEDTAVYFCARDQKEWRLIFDYWGQGTLVTVSSRTVAAPSVFIFPPSDEQLKSGTASVVCLLNNFYPREAKVQWKVDNALQSGNSQESVTEQDSKDSTYSLSSTLTLSKADYEKHKVYACEVTHQGLSSPVTKSFNRGEC
- Cyno TDCC Max killing (%), Ovcar-8 target cells with cynomolgus monkey T cells [1]: 91%

- Cyno TDCC EC50 (pM), Ovcar-8 target cells with cynomolgus monkey T cells [1]: 8.1 pM
- FACS binding (geometric mean) [2]: 66 geometric mean of fluorescence intensity
- FACS binding (geometric mean) [3]: 276 geometric mean of fluorescence intensity
B2: H71365.2 (anti-MSLN/CD3ε heterodimeric bispecific antibody) (bispecific antibody)
chain 1: QVQLVESGGGVVQPGRSLRLSCAASGFTFSSYGMHWVRQAPGKGLEWVAVISYPGNTKYYADSVKGRFTISRDNSKNTLYLQMNSLRAEDTAVYFCARDQKEWRLIFDYWGQGTLVTVSSGGGGSGGGGSQVQLQESGPGLVKPSQTLSLTCTVSGGSINNNNYYWTWIRQHPGKGLEWIGYIYYSGSTFYNPSLKSRVTISVDTSKTQFSLKLSSVTAADTAVYYCAREDTMTGLDVWGQGTTVTVSSASTKGPSVFPLAPCSRSTSESTAALGCLVKDYFPEPVTVSWNSGALTSGVHTFPAVLQSSGLYSLSSVVTVPSSNFGTQTYTCNVDHKPSNTKVDKTVGGGGSAAAVPRDLEVVAATPTSLLISWDAPHHGVAYYRITYGETGGNSPVQEFTVPGSKSTATISGLKPGVDYTINVYAVLAYPRGYPLSKPISINYRTDYKDDDDKGSSHHHHHH
chain 2: DIQMTQSPSSVSASVGDRVTITCRASQGISSWLAWYQQKPGKAPKLLIYAASSLQSGVPSRFSGSGSGAAFTLTISSLQPEDFATYFCQQANSFPLTFAGGTKVDIKRGGGGSGGGGSDIQMTQSPSSLSASVGDRVTITCRASQSINNYLNWYQQKPGKAPTLLIYAASSLQSGVPSRFSGSRSGTDFTLTISSLQPEDFAAYFCQQTYSNPTFGQGTKVEVKRTVAAPSVFIFPPSDEQLKSGTASVVCLLNNFYPREAKVQWKVDNALQSGNSQESVTEQDSKDSTYSLSSTLTLSKADYEKHKVYACEVTHQGLSSPVTKSFNRGEC
- Cyno TDCC Max killing (%), Ovcar-8 target cells with cynomolgus monkey T cells [1]: 86%

- EC50 of specific lysis, Cal-51 cells (printed Cal-61) with human T cells [4]: 1.21 pM
- EC50 of specific lysis, T47D cells with human T cells [4]: 1.26 pM
- EC50 (pM) for IFN-γ release by T cells in presence of T47D cells [5]: 27.1 pM
- EC50 (pM) for IL-2 release by T cells in presence of T47D cells [5]: 20.3 pM
- EC50 (pM) for IL-10 release by T cells in presence of T47D cells [5]: 28.3 pM
- EC50 (pM) for IL-13 release by T cells in presence of T47D cells [5]: 27.8 pM
- EC50 (pM) for TNF-α release by T cells in presence of T47D cells [5]: 12.5 pM
B5: P136795.3 (anti-FOLR1/CD3ε heterodimeric bispecific antibody) (bispecific antibody)
chain 1: EVQLVESGGGLVQPGGSLKLSCAASGFTFNSYAMNWVRQAPGKGLEWVARIRSKYNNYATYYADSVKGRFTISRDDSKNTAYLQMNNLKTEDTAVYYCVRHGNFGNSYVSWWAYWGQGTLVTVSSGGGGSGGGGSQSVLTQPPSVSEAPRQRVTISCSGSSSNIGNNAVNWYQQLPGKAPKLLIYYDDMLSSGVSDRFSGSKSGTSASLAISGLQSEDEADYYCAAWDDSLNGVVFGGGTKLTVLASTKGPSVFPLAPCSRSTSESTAALGCLVKDYFPEPVTVSWNSGALTSGVHTFPAVLQSSGLYSLSSVVTVPSSNFGTQTYTCNVDHKPSNTKVDKTVGGGGSAAAEPKSSDKTHTCPPCPAPEAAGGPSVFLFPPKPKDTLMISRTPEVTCVVVDVSHEDPEVKFNWYVDGVEVHNAKTKPREEQYNSTYRVVSVLTVLHQDWLNGKEYKCKVSNKALPAPIEKTISKAKGQPREPQVYTLPPSREEMTKNQVSLTCLVKGFYPSDIAVEWESNGQPENNYDTTPPVLDSDGSFFLYSDLTVDKSRWQQGNVFSCSVMHEALHNHYTQKSLSLSPGK
chain 2: not shown
